{
  "source": "patent EP4810519A2",
  "key": {"human CD3 (human) [1]": {"molecular_target": "human CD3 (human) (UniProt P07766)", "sequence (P07766 23-126)": "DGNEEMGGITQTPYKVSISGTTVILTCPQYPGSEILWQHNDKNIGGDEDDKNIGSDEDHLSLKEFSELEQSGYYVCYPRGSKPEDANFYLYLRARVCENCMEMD", "assay": "Biacore; glofitamab formulations F2 and F5 after storage at 40°C, relative to initial"}, "human CD3 (human) [2]": {"molecular_target": "human CD3 (human) (UniProt P07766)", "assay": "Biacore; glofitamab formulations F1, F3 and F4 after storage at 40°C, relative to initial"}},
  "data": [
    {"substance": "glofitamab (bispecific antibody)", "values": [
      {"measurement": "loss of CD3 binding", "setting": "human CD3 (human) [1]", "result": "< 50", "unit": "%"},
      {"measurement": "loss of CD3 binding", "setting": "human CD3 (human) [2]", "result": "10 to 20", "unit": "%"}
    ]}
  ]
}
